In patent US20130005646A1 (Novo Nordisk, published 2013):
Starred links: 1 amine or outer side, 2 acyl side, 3 side chain; linkers in the order of their positions; H or OH if unused. Positions of bridges follow the written chain, without caps; N, C: chain ends. Groups on a side chain read outwards from the residue. No end group written: not given here. *: point of attachment. C20 diacid = O=C(O)CCCCCCCCCCCCCCCCCCC(=O)*; C18 diacid = O=C(O)CCCCCCCCCCCCCCCCC(=O)*; γGlu = O=C(O)[C@H](CCC(=O)[*:2])N[*:1]

T1: human amylin 3(a) receptor (human calcitonin receptor + RAMP-3) (human, UniProt P30988 25-474; O60896 24-148)
T1 sequence (looked up) 1: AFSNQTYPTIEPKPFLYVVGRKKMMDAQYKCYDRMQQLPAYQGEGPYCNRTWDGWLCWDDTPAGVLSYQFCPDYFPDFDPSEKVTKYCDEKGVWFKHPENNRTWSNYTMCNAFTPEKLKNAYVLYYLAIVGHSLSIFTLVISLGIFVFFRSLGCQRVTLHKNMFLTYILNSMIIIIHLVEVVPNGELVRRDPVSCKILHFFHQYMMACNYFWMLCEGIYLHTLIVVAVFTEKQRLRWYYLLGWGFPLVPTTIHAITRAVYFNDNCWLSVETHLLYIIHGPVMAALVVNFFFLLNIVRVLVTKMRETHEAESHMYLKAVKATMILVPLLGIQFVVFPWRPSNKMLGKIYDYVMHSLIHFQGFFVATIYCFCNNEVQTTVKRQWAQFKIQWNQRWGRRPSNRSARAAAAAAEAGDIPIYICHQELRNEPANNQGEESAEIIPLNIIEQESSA
T1 sequence (looked up) 2: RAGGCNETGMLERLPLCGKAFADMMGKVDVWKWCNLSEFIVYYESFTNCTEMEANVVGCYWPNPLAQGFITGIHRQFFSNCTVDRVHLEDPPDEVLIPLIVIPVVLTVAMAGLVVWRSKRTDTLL

T2: human calcitonin (a) receptor (human, UniProt P30988 25-474)
T2 sequence (looked up): T1 sequence (looked up) 1

B1: N-epsilon1-[(S)-4-Carboxy-4-(17-carboxyheptadecanoylamino)butyryl]-[Glu14,His17,His35]-pramlintide (peptide)
peptide: K([γGlu-C18 diacid])CNTATCATQRLAEFLHHSSNNFGPILPPTNVGSHTY-NH2
modifications: disulfide 2-7; N-terminus assumed
SMILES: CC[C@H](C)[C@H](NC(=O)[C@@H]1CCCN1C(=O)CNC(=O)[C@H](Cc1ccccc1)NC(=O)[C@H](CC(N)=O)NC(=O)[C@H](CC(N)=O)NC(=O)[C@H](CO)NC(=O)[C@H](CO)NC(=O)[C@H](Cc1c[nH]cn1)NC(=O)[C@H](Cc1c[nH]cn1)NC(=O)[C@H](CC(C)C)NC(=O)[C@H](Cc1ccccc1)NC(=O)[C@H](CCC(=O)O)NC(=O)[C@H](C)NC(=O)[C@H](CC(C)C)NC(=O)[C@H](CCCNC(=N)N)NC(=O)[C@H](CCC(N)=O)NC(=O)[C@@H](NC(=O)[C@H](C)NC(=O)[C@@H]1CSSC[C@H](NC(=O)[C@@H](N)CCCCNC(=O)CC[C@H](NC(=O)CCCCCCCCCCCCCCCCC(=O)O)C(=O)O)C(=O)N[C@@H](CC(N)=O)C(=O)N[C@@H]([C@@H](C)O)C(=O)N[C@@H](C)C(=O)N[C@@H]([C@@H](C)O)C(=O)N1)[C@@H](C)O)C(=O)N[C@@H](CC(C)C)C(=O)N1CCC[C@H]1C(=O)N1CCC[C@H]1C(=O)N[C@H](C(=O)N[C@@H](CC(N)=O)C(=O)N[C@H](C(=O)NCC(=O)N[C@@H](CO)C(=O)N[C@@H](Cc1c[nH]cn1)C(=O)N[C@H](C(=O)N[C@@H](Cc1ccc(O)cc1)C(N)=O)[C@@H](C)O)C(C)C)[C@@H](C)O
B2: N-alpha-[(S)-4-Carboxy-4-(19-carboxynonadecanoylamino)butyryl]-[Arg1,Pro37]-pramlintide (peptide)
peptide: {C20 diacid-γGlu}-RCNTATCATQRLANFLVHSSNNFGPILPPTNVGSNTP-NH2
modifications: disulfide 2-7
SMILES: CC[C@H](C)[C@H](NC(=O)[C@@H]1CCCN1C(=O)CNC(=O)[C@H](Cc1ccccc1)NC(=O)[C@H](CC(N)=O)NC(=O)[C@H](CC(N)=O)NC(=O)[C@H](CO)NC(=O)[C@H](CO)NC(=O)[C@H](Cc1c[nH]cn1)NC(=O)[C@@H](NC(=O)[C@H](CC(C)C)NC(=O)[C@H](Cc1ccccc1)NC(=O)[C@H](CC(N)=O)NC(=O)[C@H](C)NC(=O)[C@H](CC(C)C)NC(=O)[C@H](CCCNC(=N)N)NC(=O)[C@H](CCC(N)=O)NC(=O)[C@@H](NC(=O)[C@H](C)NC(=O)[C@@H]1CSSC[C@H](NC(=O)[C@H](CCCNC(=N)N)NC(=O)CC[C@H](NC(=O)CCCCCCCCCCCCCCCCCCC(=O)O)C(=O)O)C(=O)N[C@@H](CC(N)=O)C(=O)N[C@@H]([C@@H](C)O)C(=O)N[C@@H](C)C(=O)N[C@@H]([C@@H](C)O)C(=O)N1)[C@@H](C)O)C(C)C)C(=O)N[C@@H](CC(C)C)C(=O)N1CCC[C@H]1C(=O)N1CCC[C@H]1C(=O)N[C@H](C(=O)N[C@@H](CC(N)=O)C(=O)N[C@H](C(=O)NCC(=O)N[C@@H](CO)C(=O)N[C@@H](CC(N)=O)C(=O)N[C@H](C(=O)N1CCC[C@H]1C(N)=O)[C@@H](C)O)C(C)C)[C@@H](C)O
B3: N-alpha-[(S)-4-Carboxy-4-(19-carboxynonadecanoylamino)butyryl]-[Arg1,His35]-pramlintide (peptide)
peptide: {C20 diacid-γGlu}-RCNTATCATQRLANFLVHSSNNFGPILPPTNVGSHTY-NH2
modifications: disulfide 2-7
SMILES: CC[C@H](C)[C@H](NC(=O)[C@@H]1CCCN1C(=O)CNC(=O)[C@H](Cc1ccccc1)NC(=O)[C@H](CC(N)=O)NC(=O)[C@H](CC(N)=O)NC(=O)[C@H](CO)NC(=O)[C@H](CO)NC(=O)[C@H](Cc1c[nH]cn1)NC(=O)[C@@H](NC(=O)[C@H](CC(C)C)NC(=O)[C@H](Cc1ccccc1)NC(=O)[C@H](CC(N)=O)NC(=O)[C@H](C)NC(=O)[C@H](CC(C)C)NC(=O)[C@H](CCCNC(=N)N)NC(=O)[C@H](CCC(N)=O)NC(=O)[C@@H](NC(=O)[C@H](C)NC(=O)[C@@H]1CSSC[C@H](NC(=O)[C@H](CCCNC(=N)N)NC(=O)CC[C@H](NC(=O)CCCCCCCCCCCCCCCCCCC(=O)O)C(=O)O)C(=O)N[C@@H](CC(N)=O)C(=O)N[C@@H]([C@@H](C)O)C(=O)N[C@@H](C)C(=O)N[C@@H]([C@@H](C)O)C(=O)N1)[C@@H](C)O)C(C)C)C(=O)N[C@@H](CC(C)C)C(=O)N1CCC[C@H]1C(=O)N1CCC[C@H]1C(=O)N[C@H](C(=O)N[C@@H](CC(N)=O)C(=O)N[C@H](C(=O)NCC(=O)N[C@@H](CO)C(=O)N[C@@H](Cc1c[nH]cn1)C(=O)N[C@H](C(=O)N[C@@H](Cc1ccc(O)cc1)C(N)=O)[C@@H](C)O)C(C)C)[C@@H](C)O
B4: N-alpha-[(S)-4-Carboxy-4-(19-carboxynonadecanoylamino)butyryl]-Gly-[His1,Glu14,His17,Pro37]-pramlintide (peptide)
peptide: {C20 diacid-γGlu}-GHCNTATCATQRLAEFLHHSSNNFGPILPPTNVGSNTP-NH2
modifications: disulfide 3-8
SMILES: CC[C@H](C)[C@H](NC(=O)[C@@H]1CCCN1C(=O)CNC(=O)[C@H](Cc1ccccc1)NC(=O)[C@H](CC(N)=O)NC(=O)[C@H](CC(N)=O)NC(=O)[C@H](CO)NC(=O)[C@H](CO)NC(=O)[C@H](Cc1c[nH]cn1)NC(=O)[C@H](Cc1c[nH]cn1)NC(=O)[C@H](CC(C)C)NC(=O)[C@H](Cc1ccccc1)NC(=O)[C@H](CCC(=O)O)NC(=O)[C@H](C)NC(=O)[C@H](CC(C)C)NC(=O)[C@H](CCCNC(=N)N)NC(=O)[C@H](CCC(N)=O)NC(=O)[C@@H](NC(=O)[C@H](C)NC(=O)[C@@H]1CSSC[C@H](NC(=O)[C@H](Cc2c[nH]cn2)NC(=O)CNC(=O)CC[C@H](NC(=O)CCCCCCCCCCCCCCCCCCC(=O)O)C(=O)O)C(=O)N[C@@H](CC(N)=O)C(=O)N[C@@H]([C@@H](C)O)C(=O)N[C@@H](C)C(=O)N[C@@H]([C@@H](C)O)C(=O)N1)[C@@H](C)O)C(=O)N[C@@H](CC(C)C)C(=O)N1CCC[C@H]1C(=O)N1CCC[C@H]1C(=O)N[C@H](C(=O)N[C@@H](CC(N)=O)C(=O)N[C@H](C(=O)NCC(=O)N[C@@H](CO)C(=O)N[C@@H](CC(N)=O)C(=O)N[C@H](C(=O)N1CCC[C@H]1C(N)=O)[C@@H](C)O)C(C)C)[C@@H](C)O
B5: N-alpha-[(S)-4-Carboxy-4-(19-carboxynonadecanoylamino)butyryl]-[Arg1,Glu14,His17,His35]-pramlintide (peptide)
peptide: {C20 diacid-γGlu}-RCNTATCATQRLAEFLHHSSNNFGPILPPTNVGSHTY-NH2
modifications: disulfide 2-7
SMILES: CC[C@H](C)[C@H](NC(=O)[C@@H]1CCCN1C(=O)CNC(=O)[C@H](Cc1ccccc1)NC(=O)[C@H](CC(N)=O)NC(=O)[C@H](CC(N)=O)NC(=O)[C@H](CO)NC(=O)[C@H](CO)NC(=O)[C@H](Cc1c[nH]cn1)NC(=O)[C@H](Cc1c[nH]cn1)NC(=O)[C@H](CC(C)C)NC(=O)[C@H](Cc1ccccc1)NC(=O)[C@H](CCC(=O)O)NC(=O)[C@H](C)NC(=O)[C@H](CC(C)C)NC(=O)[C@H](CCCNC(=N)N)NC(=O)[C@H](CCC(N)=O)NC(=O)[C@@H](NC(=O)[C@H](C)NC(=O)[C@@H]1CSSC[C@H](NC(=O)[C@H](CCCNC(=N)N)NC(=O)CC[C@H](NC(=O)CCCCCCCCCCCCCCCCCCC(=O)O)C(=O)O)C(=O)N[C@@H](CC(N)=O)C(=O)N[C@@H]([C@@H](C)O)C(=O)N[C@@H](C)C(=O)N[C@@H]([C@@H](C)O)C(=O)N1)[C@@H](C)O)C(=O)N[C@@H](CC(C)C)C(=O)N1CCC[C@H]1C(=O)N1CCC[C@H]1C(=O)N[C@H](C(=O)N[C@@H](CC(N)=O)C(=O)N[C@H](C(=O)NCC(=O)N[C@@H](CO)C(=O)N[C@@H](Cc1c[nH]cn1)C(=O)N[C@H](C(=O)N[C@@H](Cc1ccc(O)cc1)C(N)=O)[C@@H](C)O)C(C)C)[C@@H](C)O

target: T1, human amylin 3(a) receptor (human …); experiment: cell-based or functional assay

Amylin receptor human EC50	Binder
120 pM	B1
34 pM	B2
74.5 pM	B3
52 pM	B4
82 pM	B5

target: T2, human calcitonin (a) receptor; experiment: cell-based or functional assay

CTa receptor human EC50	Binder
286 pM	B1
38.5 pM	B2
193 pM	B3
49 pM	B4
174 pM	B5
